# In the supplement of paper PMC9233669:
# This sample holds only a part of the variants without activity.
# Tests used:
# biotinyl-Leu-oxazolone = assay: self-aminoacylation, catalytic enhancement (BLO) (fold over background); higher = more active; k-Seq, kA / k0A0; sequences stand for … in GGGAAUGGAUCCACAUCUACGAAUUC…UUCACUGCAGACUUGACGAAGCUG
# Method in brief: (§1)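 Mutagenized RNA pools with a 21-nt variable region (0.43 μM) were reacted with each biotinyl-aminoacyl-oxazolone at 2–1250 μM for 90 minutes at room temperature, in 50 μL HEPES/NaCl/KCl/MgCl2/CaCl2 buffer containing 5% acetonitrile at pH 6.9–7.0. RNA captured on streptavidin was quantified by triplicate qPCR and by Illumina sequencing. The fraction reacted for each sequence was fit to a pseudo-first-order model with bootstrapping, and catalytic enhancement is the median kA divided by the uncatalyzed rate, taken as the low-activity peak of a bimodal Gaussian fit.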
# biotinyl-Phe-oxazolone = assay: self-aminoacylation, catalytic enhancement (BFO) (fold over background); higher = more active; k-Seq, kA / k0A0; sequences stand for … in GGGAAUGGAUCCACAUCUACGAAUUC…UUCACUGCAGACUUGACGAAGCUG
# Method in brief: as §1
# biotinyl-Met-oxazolone = assay: self-aminoacylation, catalytic enhancement (BMO) (fold over background); higher = more active; k-Seq, kA / k0A0; sequences stand for … in GGGAAUGGAUCCACAUCUACGAAUUC…UUCACUGCAGACUUGACGAAGCUG
# Method in brief: as §1
# biotinyl-Val-oxazolone = assay: self-aminoacylation, catalytic enhancement (BVO) (fold over background); higher = more active; k-Seq, kA / k0A0; sequences stand for … in GGGAAUGGAUCCACAUCUACGAAUUC…UUCACUGCAGACUUGACGAAGCUG
# Method in brief: as §1
# biotinyl-Trp-oxazolone = assay: self-aminoacylation, catalytic enhancement (BWO) (fold over background); higher = more active; k-Seq, kA / k0A0; sequences stand for … in GGGAAUGGAUCCACAUCUACGAAUUC…UUCACUGCAGACUUGACGAAGCUG
# Method in brief: as §1
# biotinyl-Ile-oxazolone = assay: self-aminoacylation, catalytic enhancement (BIO) (fold over background); higher = more active; k-Seq, kA / k0A0; sequences stand for … in GGGAAUGGAUCCACAUCUACGAAUUC…UUCACUGCAGACUUGACGAAGCUG
# Method in brief: as §1
Sequence,self-aminoacylation (biotinyl-Leu-oxazolone),self-aminoacylation (biotinyl-Phe-oxazolone),self-aminoacylation (biotinyl-Met-oxazolone),self-aminoacylation (biotinyl-Val-oxazolone),self-aminoacylation (biotinyl-Trp-oxazolone),self-aminoacylation (biotinyl-Ile-oxazolone)
AAGUUUGUUAAUAGACGCAAG [Fam3.1 aminoacylation ribozyme variant],0.399,0.803,0.587,0.536,0.609,0.583
AAGUUUGUUAAUAUUCGCAAG [Fam3.1 aminoacylation ribozyme variant],1.45,1.17,1.15,1.43,1.41,1.55
AAGUUUGUUAAUCGUCGCAAG [Fam3.1 aminoacylation ribozyme variant],1.15,1.05,1.35,1.22,1.04,1.21
AAGUUUUAUAAUAGUCGCAAG [Fam3.1 aminoacylation ribozyme variant],1.61,3.02,1.77,1.64,1.99,1.72
AAGUUUUCUAAUAGUCACAAG [Fam3.1 aminoacylation ribozyme variant],1.4,2.39,1.25,1.64,1.87,1.64
AAGUUUUCUAAUAGUCCCAAG [Fam3.1 aminoacylation ribozyme variant],0.929,2.7,0.891,1.08,1.45,1.02
AAGUUUUCUAAUAGUGGCAAG [Fam3.1 aminoacylation ribozyme variant],0.804,0.75,0.758,0.662,0.658,0.856
AAGUUUUCUAAUCGUCGCAAG [Fam3.1 aminoacylation ribozyme variant],1.79,2.56,1.68,1.69,1.65,1.75
AAUAACCUGGUCAUCGAGUGA [Fam2.1 aminoacylation ribozyme variant],5.79,9.51,5.9,3.55,7.36,3.67
AAUACCAUGGUCAUCGAGUGA [Fam2.1 aminoacylation ribozyme variant],6.22,16.2,6.12,2.89,7.7,3.19
AAUACCCUGAUCAUCGAGUGA [Fam2.1 aminoacylation ribozyme variant],6.22,18.6,6.32,3.21,7.59,2.79
AAUACCCUGGUCAUCGGGUGA [Fam2.1 aminoacylation ribozyme variant],11.8,77.3,12.1,7.46,15.9,7.82
AAUACCCUGGUUAUCGAGUGA [Fam2.1 aminoacylation ribozyme variant],7.89,30.8,6.97,3.59,9.84,3.37
AAUACCCUUGUCAUCGAGUGA [Fam2.1 aminoacylation ribozyme variant],4.72,5.23,4.58,2.43,5.93,2.42
AAUAUCCUGGUCAUCGAGUGA [Fam2.1 aminoacylation ribozyme variant],8.92,26.2,8.66,4.34,10.1,4.6
AAUAUUGCUAAUAGUCGCAAG [Fam3.1 aminoacylation ribozyme variant],1.7,2.4,1.68,1.76,1.95,1.86
AAUCACCAAGGUCAUCGGGUG [Fam2.2 aminoacylation ribozyme variant],10.7,54.3,6.79,5.67,8.66,4.92
AAUCACCUACGUCAUCGGGUG [Fam2.2 aminoacylation ribozyme variant],6.01,53,6.56,3.79,7.27,4.41
AAUCACCUAGGUCAUCGAGUG [Fam2.2 aminoacylation ribozyme variant],4.65,7.56,3.92,2.86,3.26,3.52
AAUCACCUAGGUCAUCGCGUG [Fam2.2 aminoacylation ribozyme variant],12.1,70.6,11.3,7.32,10.4,6.41
AAUCACCUAGGUCAUCGGGCG [Fam2.2 aminoacylation ribozyme variant],4.1,7.85,4.05,2.77,3.94,3.35
AAUCACCUAGGUCAUUGGGUG [Fam2.2 aminoacylation ribozyme variant],3.6,13.1,2.74,2.65,4.15,2.94
AAUCACCUAGGUCCUCGGGUG [Fam2.2 aminoacylation ribozyme variant],5.07,19.7,3.73,3.29,5.34,3.74
AAUCCCCUAGGUCAUCGGGUG [Fam2.2 aminoacylation ribozyme variant],16.3,104,13.5,8.17,11.8,7.49
AAUUCCCUGGUCAUCGAGUGA [Fam2.1 aminoacylation ribozyme variant],10.8,41.5,10.1,6.09,13,5.6
